Numbering of substitutions follows the chain as printed.
B1: 82H02 TCE #2 (sequence optimized 82H02 bispecific TCE in Format 1A, high ROR1 / low CD3 affinity) (bispecific antibody)
heavy 1: EVQLVESGGGLVQPGGSLKLSCAASGFTFNTYAMNWVRQASGKGLEWVGRIRSKYNNYATYYADSVKGRFTISRDDSKNTLYLQMNSLKTEDTAVYYCVRHGNFGNSYVSWFAYWGQGTMVTVSSASTKGPSVFPLAPSSKSTSGGTAALGCLVKDYFPEPVTVSWNSGALTSGVHTFPAVLQSSGLYSLSSVVTVPSSSLGTQTYICNVNHKPSNTKVDKKVEPKSCDKTHTCPPCPAPEAAGGPSVFLFPPKPKDTLMISRTPEVTCVVVDVSHEDPEVKFNWYVDGVEVHNAKTKPREEQYNSTYRVVSVLTVLHQDWLNGKEYKCKVSNKALGAPIEKTISKAKGQPFRPEVHLLPPSREEMTKNQVSLTCLARGFYPKDIAVEWESNGQPENNYKTTPSRQEPSQGTTTFAVTSKLTVDKSRWQQGNVFSCSVMHEALHNHYTQKTISLSPGK
heavy 2: EIVLTQSPATLSLSPGERATLSCRASQSVSSYLAWYQQKPGQAPRLLIYDASNRATGIPARFSGSGSGTDFTLTISSLEPEDFAVYYCQQRSNWPPSTFGQGTRLEIKGGGGSGGGGSGGGGSGGGGSEVQLLESGGGLVQPGGSLRLSCAASGFTFTSYAMSWVRQAPGKGLEWVSTISGSGGGTYYTDSVKGRFTISRDNSKNTLYLQMNSLRAEDTAVYYCAQGSSIFDYWGQGTLVTVSSEPKSSDKTHTCPPCPAPEAAGGPSVFLFPPKPKDTLMISRTPEVTCVVVDVSHEDPEVKFNWYVDGVEVHNAKTKPREEQYNSTYRVVSVLTVLHQDWLNGKEYKCKVSNKALGAPIEKTISKAKGQPREPQVYTLPPPSEELALNELVTLTCLVKGFYPSDIAVEWLQGSQELPREKYLTWAPVLDSDGSFFLYSILRVAAEDWKKGDTFSCSVMHEALHNHYTQKSLDRSPGKGGGGSGGGGSGGGGSGGGGSEIVLTQSPATLSLSPGERATLSCRASQSVSSYLAWYQQKPGQAPRLLIYDASNRATGIPARFSGSGSGTDFTLTISSLEPEDFAVYYCQQRSNWPPSTFGQGTRLEIKGGGGSGGGGSGGGGSGGGGSEVQLLESGGGLVQPGGSLRLSCAASGFTFTSYAMSWVRQAPGKGLEWVSTISGSGGGTYYTDSVKGRFTISRDNSKNTLYLQMNSLRAEDTAVYYCAQGSSIFDYWGQGTLVTVSS
light: QTVVTQEPSLTVSPGGTVTLTCASSTGAVTTSNYANWVQQKPGQAPRALIGGTNKRAPGTPARFSGSLLGGKAALTLSGVQPEDEAEYYCALWYSNLWVFGGGTKLTVLGQPKAAPSVTLFPPSSEELQANKATLVCLISDFYPGAVTVAWKADSSPVKAGVETTTPSKQSNNKYAASSYLSLTPEQWKSHRSYSCQVTHEGSTVEKTVAPTECS
notes: also called 82H02 #2; 82H02 VL1.07x1F3.5-VH1.01-VL1.01
B2: 82H02 TCE #4 (sequence optimized 82H02 bispecific TCE in Format 1A, low ROR1 / low CD3 affinity) (bispecific antibody)
heavy 1: B1 heavy 1
heavy 2: B1 heavy 2 with S97F, S596F
light: B1 light
notes: also called 82H02 #4; 82H02 VL1.06x1F3.5-VH1.01-VL1.01

Columns and labels:
[1] = target: T1, cynomolgus CD3 (on cynomolgus pan-T cells) (cynomolgus, UniProt Q95LI5 22-198); experiment: flow cytometry, cynomolgus pan-T cells
T1 construct: whole, on cells
Procedure: (§1) After 15-minutes of incubation at room temperature, the cells were washed twice with 200 μL of PBS by centrifugation at 500×g for 5 minutes at room temperature and resuspended in […] of 10% goat serum in BD staining buffer (BD Biosciences, Cat No: 554657). […] The plates were then covered with foil to avoid direct light and incubated for 60 minutes at 4° C. […] After incubating for 30 minutes at 4° C., the cells were washed twice with 200 μL of PBS by centrifugation at 500×g for 5 minutes at room temperature and resuspended into 100 μL of fixation buffer (BioLegend, Cat No: 420801). The samples were then analyzed on a flow cytometer for binding signal using FlowJo software. ROR and CD3 binding EC₅₀s (concentration vs mean fluorescence intensity (MFI)) for reference molecules and test bispecific TCEs were obtained using 4-parameter non-linear regression curve fitting in GraphPad Prism.

human ROR1 (on cells) [2] = target: T2, human ROR1 (on cells) (human, UniProt Q01973 30-937); experiment: cell-based or functional assay
human ROR1 (on cells) [3] = target: T2, human ROR1 (on cells); experiment: cell-based or functional assay; remark: listed apart in the source
human ROR1 (on cells) [4] = target: T2, human ROR1 (on cells); experiment: flow cytometry, ROR1+ MDA-MB-231 cells
Procedure: as §1

human ROR1 (on cells) [5] = target: T2, human ROR1 (on cells); experiment: cell-based or functional assay; remark: listed apart in the source
[6] = target: T3, mouse ROR1 (on 4T1 cells engineered to overexpress it) (mouse, UniProt Q9Z139 30-937); experiment: flow cytometry, 4T1 cells overexpressing mouse ROR1
T3 construct: whole, on cells; also called muROR1; mROR1
Procedure: as §1

[7] = target: T4, human CD3 (on Jurkat T cells or human CD8+ T cells) (human, UniProt P07766 23-207; P09693 23-182; P04234 22-171; P20963 22-164); experiment: flow cytometry, human CD8+ T cells
T4 construct: Entries are printed with signal peptides; also called huCD3; CD3ε
Procedure: as §1

human ROR1 (on cells) [8] = target: T2, human ROR1 (on cells); experiment: cell-based or functional assay; remark: listed apart in the source
[9] = target: T3, mouse ROR1 (on 4T1 cells engineered to …); experiment: flow cytometry; reference: human ROR1 on MDA-MB-231 cells

T1 sequence (Q95LI5 22-198): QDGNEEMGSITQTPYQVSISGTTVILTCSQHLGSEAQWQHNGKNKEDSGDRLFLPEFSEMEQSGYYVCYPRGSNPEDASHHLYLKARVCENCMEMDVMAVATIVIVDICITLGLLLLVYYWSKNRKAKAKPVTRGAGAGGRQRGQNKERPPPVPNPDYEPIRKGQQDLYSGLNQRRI
T4 sequence (P07766 23-207 limits assumed, chain 1 of 4): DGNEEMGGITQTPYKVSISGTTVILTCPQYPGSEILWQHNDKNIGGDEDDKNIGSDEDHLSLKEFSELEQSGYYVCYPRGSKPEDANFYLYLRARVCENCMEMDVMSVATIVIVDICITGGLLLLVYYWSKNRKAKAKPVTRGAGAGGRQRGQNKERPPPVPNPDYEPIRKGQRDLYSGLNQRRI
T4 sequence (P09693 23-182 limits assumed, chain 2 of 4): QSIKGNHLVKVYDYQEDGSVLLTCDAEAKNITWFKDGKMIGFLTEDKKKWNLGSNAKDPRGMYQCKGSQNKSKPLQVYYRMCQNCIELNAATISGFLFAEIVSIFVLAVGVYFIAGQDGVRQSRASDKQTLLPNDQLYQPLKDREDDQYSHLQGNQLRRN
T4 sequence (P04234 22-171 limits assumed, chain 3 of 4): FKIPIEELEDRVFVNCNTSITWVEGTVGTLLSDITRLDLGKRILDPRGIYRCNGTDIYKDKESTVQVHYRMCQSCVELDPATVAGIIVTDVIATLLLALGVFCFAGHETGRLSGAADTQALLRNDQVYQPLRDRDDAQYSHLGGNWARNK
T4 sequence (P20963 22-164 limits assumed, chain 4 of 4): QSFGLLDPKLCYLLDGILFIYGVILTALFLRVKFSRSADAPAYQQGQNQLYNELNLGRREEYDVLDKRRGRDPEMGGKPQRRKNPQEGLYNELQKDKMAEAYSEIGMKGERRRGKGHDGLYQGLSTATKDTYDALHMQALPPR

| Binder | EC50 [1] | IFNγ release EC50, PBMCs: MDA-MB-231 (human ROR1 (on cells) [2]) | Max IFNγ, PBMCs: MDA-MB-231 (human ROR1 (on cells) [2]) | TDCC EC50, PBMCs: MDA-MB-231 (human ROR1 (on cells) [3]) | EC50 (human ROR1 (on cells) [4]) | IFNγ release AUC, PBMCs: MDA-MB-231-0.2 (human ROR1 (on cells) [5]) | IFNγ release AUC, PBMCs: MDA-MB-231-0.4 (human ROR1 (on cells) [5]) | IFNγ release AUC, PBMCs: MDA-MB-231-0.6 (human ROR1 (on cells) [5]) | IFNγ release AUC, PBMCs: MDA-MB-231-1.3 (human ROR1 (on cells) [5]) | IFNγ release AUC, PBMCs: MDA-MB-231-7 (human ROR1 (on cells) [5]) | IFNγ release EC50, PBMCs: MDA-MB-231-0.2 (human ROR1 (on cells) [5]) | IFNγ release EC50, PBMCs: MDA-MB-231-0.4 (human ROR1 (on cells) [5]) | IFNγ release EC50, PBMCs: MDA-MB-231-0.6 (human ROR1 (on cells) [5]) | IFNγ release EC50, PBMCs: MDA-MB-231-1.3 (human ROR1 (on cells) [5]) | IFNγ release EC50, PBMCs: MDA-MB-231-7 (human ROR1 (on cells) [5]) | IFNγ release Emax, PBMCs: MDA-MB-231-0.2 (human ROR1 (on cells) [5]) | IFNγ release Emax, PBMCs: MDA-MB-231-0.4 (human ROR1 (on cells) [5]) | IFNγ release Emax, PBMCs: MDA-MB-231-0.6 (human ROR1 (on cells) [5]) | IFNγ release Emax, PBMCs: MDA-MB-231-1.3 (human ROR1 (on cells) [5]) | IFNγ release Emax, PBMCs: MDA-MB-231-7 (human ROR1 (on cells) [5]) | also measured |
| --- | --- | --- | --- | --- | --- | --- | --- | --- | --- | --- | --- | --- | --- | --- | --- | --- | --- | --- | --- | --- | --- |
| B1 | 26200 pM | 265000 pM | 1000 pg/mL | 43900 pM | 720 pM | 1.55e+06 | 2.03e+06 | 9.77e+06 | 4.49e+06 | 4.68e+06 | 192 pM | 151 pM | 97.7 pM | 30.6 pM | 26.5 pM | 2270% | 2670% | 3670% | 4850% | 4970% | EC50 [6]: 2240 pM; EC50 [7]: 19800 pM; TDCC AUC, PBMCs: MDA-MB-231-0.2 (human ROR1 (on cells) [8]): 35700; TDCC AUC, PBMCs: MDA-MB-231-0.4 (human ROR1 (on cells) [8]): 47600; TDCC AUC, PBMCs: MDA-MB-231-0.6 (human ROR1 (on cells) [8]): 54100; TDCC AUC, PBMCs: MDA-MB-231-1.3 (human ROR1 (on cells) [8]): 63700; TDCC AUC, PBMCs: MDA-MB-231-7 (human ROR1 (on cells) [8]): 72000; TDCC EC50, PBMCs: MDA-MB-231-0.2 (human ROR1 (on cells) [8]): 13.7 pM; TDCC EC50, PBMCs: MDA-MB-231-0.4 (human ROR1 (on cells) [8]): 12.5 pM; TDCC EC50, PBMCs: MDA-MB-231-0.6 (human ROR1 (on cells) [8]): 10.5 pM; TDCC EC50, PBMCs: MDA-MB-231-1.3 (human ROR1 (on cells) [8]): 8.96 pM; TDCC EC50, PBMCs: MDA-MB-231-7 (human ROR1 (on cells) [8]): 4.71 pM; TDCC Emax, PBMCs: MDA-MB-231-0.2 (human ROR1 (on cells) [8]): 37.5%; TDCC Emax, PBMCs: MDA-MB-231-0.4 (human ROR1 (on cells) [8]): 50.2%; TDCC Emax, PBMCs: MDA-MB-231-0.6 (human ROR1 (on cells) [8]): 56.8%; TDCC Emax, PBMCs: MDA-MB-231-1.3 (human ROR1 (on cells) [8]): 65.4%; TDCC Emax, PBMCs: MDA-MB-231-7 (human ROR1 (on cells) [8]): 74.1%; fold difference in apparent ROR1 binding affinity between human and mouse ROR1 [9]: ~3 fold |
| B2 | 27700 pM | 509000 pM | 764 pg/mL | 168000 pM | 76500 pM | 1.09e+06 | 1.42e+06 | 8.23e+06 | 4.11e+06 | 4.14e+06 | 280 pM | 160 pM | 121 pM | 35.1 pM | 30.9 pM | 1730% | 1840% | 2780% | 4560% | 4480% | EC50 [6]: 496000 pM; EC50 [7]: 20400 pM; TDCC AUC, PBMCs: MDA-MB-231-0.2 (human ROR1 (on cells) [8]): 25900; TDCC AUC, PBMCs: MDA-MB-231-0.4 (human ROR1 (on cells) [8]): 41900; TDCC AUC, PBMCs: MDA-MB-231-0.6 (human ROR1 (on cells) [8]): 46300; TDCC AUC, PBMCs: MDA-MB-231-1.3 (human ROR1 (on cells) [8]): 58900; TDCC AUC, PBMCs: MDA-MB-231-7 (human ROR1 (on cells) [8]): 68300; TDCC EC50, PBMCs: MDA-MB-231-0.2 (human ROR1 (on cells) [8]): 22.3 pM; TDCC EC50, PBMCs: MDA-MB-231-0.4 (human ROR1 (on cells) [8]): 19.6 pM; TDCC EC50, PBMCs: MDA-MB-231-0.6 (human ROR1 (on cells) [8]): 15.2 pM; TDCC EC50, PBMCs: MDA-MB-231-1.3 (human ROR1 (on cells) [8]): 11.2 pM; TDCC EC50, PBMCs: MDA-MB-231-7 (human ROR1 (on cells) [8]): 6.53 pM; TDCC Emax, PBMCs: MDA-MB-231-0.2 (human ROR1 (on cells) [8]): 27.4%; TDCC Emax, PBMCs: MDA-MB-231-0.4 (human ROR1 (on cells) [8]): 45%; TDCC Emax, PBMCs: MDA-MB-231-0.6 (human ROR1 (on cells) [8]): 51.5%; TDCC Emax, PBMCs: MDA-MB-231-1.3 (human ROR1 (on cells) [8]): 60.4%; TDCC Emax, PBMCs: MDA-MB-231-7 (human ROR1 (on cells) [8]): 70.3%; fold difference in apparent ROR1 binding affinity between human and mouse ROR1 [9]: ~6.5 fold |
